Laboratory results taken from IntAct's records for PubMed 35512704.

B1: Speckle-type POZ protein (Homo sapiens), O43791 (parent)
chain: MSRVPSPPPPAEMSSGPVAESWCYTQIKVVKFSYMWTINNFSFCREEMGEVIKSSTFSSGANDKLKWCLRVNPKGLDEESKDYLSLYLLLVSCPKSEVRAKFKFSILNAKGEETKAMESQRAYRFVQGKDWGFKKFIRRDFLLDEANGLLPDDKLTLFCEVSVVQDSVNISGQNTMNMVKVPECRLADELGGLWENSRFTDCCLCVAGQEFQAHKAILAARSPVFSAMFEHEMEESKKNRVEINDVEPEVFKEMMCFIYTGKAPNLDKMADDLLAAADKYALERLKVMCEDALCSNLSVENAAEILILADLHSADQLKTQAVDFINYHASDVLETSGWKSMVVSHPHLVAEAYRSLASAQCPFLGPPRKRLKQS
partner: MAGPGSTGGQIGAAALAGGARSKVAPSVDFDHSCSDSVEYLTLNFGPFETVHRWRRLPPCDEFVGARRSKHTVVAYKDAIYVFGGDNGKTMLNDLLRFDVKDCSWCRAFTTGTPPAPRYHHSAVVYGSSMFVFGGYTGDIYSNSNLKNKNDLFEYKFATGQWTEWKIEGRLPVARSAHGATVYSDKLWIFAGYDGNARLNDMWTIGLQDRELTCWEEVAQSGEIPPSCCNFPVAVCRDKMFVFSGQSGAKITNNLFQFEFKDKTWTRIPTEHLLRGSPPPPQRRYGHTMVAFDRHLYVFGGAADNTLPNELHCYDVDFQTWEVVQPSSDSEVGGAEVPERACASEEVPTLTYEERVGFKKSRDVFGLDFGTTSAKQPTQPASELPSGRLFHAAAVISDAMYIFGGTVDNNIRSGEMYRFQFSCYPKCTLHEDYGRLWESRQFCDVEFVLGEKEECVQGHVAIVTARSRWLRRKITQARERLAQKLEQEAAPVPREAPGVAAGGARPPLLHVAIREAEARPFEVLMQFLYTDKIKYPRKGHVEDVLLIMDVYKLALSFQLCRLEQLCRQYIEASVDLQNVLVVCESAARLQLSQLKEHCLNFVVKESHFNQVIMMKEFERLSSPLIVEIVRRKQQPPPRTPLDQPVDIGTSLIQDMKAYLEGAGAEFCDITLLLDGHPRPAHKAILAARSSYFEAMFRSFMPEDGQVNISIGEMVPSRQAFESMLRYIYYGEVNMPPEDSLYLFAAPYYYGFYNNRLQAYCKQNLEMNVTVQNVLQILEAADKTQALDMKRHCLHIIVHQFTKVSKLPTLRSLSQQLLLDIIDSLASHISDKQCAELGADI
B2: Speckle-type POZ protein (Homo sapiens), O43791 (parent)
chain: B1 chain
partner: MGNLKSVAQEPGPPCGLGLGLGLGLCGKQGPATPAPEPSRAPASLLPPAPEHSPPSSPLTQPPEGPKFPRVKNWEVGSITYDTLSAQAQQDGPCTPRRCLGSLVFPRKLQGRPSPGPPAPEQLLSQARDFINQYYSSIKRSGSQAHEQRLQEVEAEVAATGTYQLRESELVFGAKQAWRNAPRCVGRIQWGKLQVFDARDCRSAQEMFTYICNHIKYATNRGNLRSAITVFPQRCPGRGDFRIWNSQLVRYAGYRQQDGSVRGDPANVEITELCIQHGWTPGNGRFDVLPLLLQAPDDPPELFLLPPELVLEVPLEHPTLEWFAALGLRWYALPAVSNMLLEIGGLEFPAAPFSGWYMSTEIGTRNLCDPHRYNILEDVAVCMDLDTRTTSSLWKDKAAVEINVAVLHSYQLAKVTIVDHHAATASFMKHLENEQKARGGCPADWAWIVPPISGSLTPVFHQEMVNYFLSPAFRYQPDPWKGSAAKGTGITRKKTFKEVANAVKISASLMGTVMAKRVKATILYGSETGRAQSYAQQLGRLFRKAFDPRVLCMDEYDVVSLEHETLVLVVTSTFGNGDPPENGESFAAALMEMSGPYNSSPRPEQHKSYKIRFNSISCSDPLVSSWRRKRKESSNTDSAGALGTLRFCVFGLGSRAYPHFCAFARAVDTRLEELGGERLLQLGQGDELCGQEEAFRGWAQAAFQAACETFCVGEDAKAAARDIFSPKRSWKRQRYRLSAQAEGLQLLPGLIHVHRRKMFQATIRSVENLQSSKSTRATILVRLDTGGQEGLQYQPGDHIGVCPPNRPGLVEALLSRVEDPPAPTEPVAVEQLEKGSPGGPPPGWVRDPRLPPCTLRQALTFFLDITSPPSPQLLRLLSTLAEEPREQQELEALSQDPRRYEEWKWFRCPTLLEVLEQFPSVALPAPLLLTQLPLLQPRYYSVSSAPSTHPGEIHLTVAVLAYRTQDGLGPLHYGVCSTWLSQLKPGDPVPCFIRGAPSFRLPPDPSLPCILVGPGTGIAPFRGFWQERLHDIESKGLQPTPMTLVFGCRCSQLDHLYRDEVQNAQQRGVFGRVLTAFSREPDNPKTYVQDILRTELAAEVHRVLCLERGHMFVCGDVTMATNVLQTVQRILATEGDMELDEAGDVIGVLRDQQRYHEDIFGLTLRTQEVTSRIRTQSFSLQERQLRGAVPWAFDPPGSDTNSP
B3: Speckle-type POZ protein (Homo sapiens), O43791 (parent)
chain: B1 chain
partner: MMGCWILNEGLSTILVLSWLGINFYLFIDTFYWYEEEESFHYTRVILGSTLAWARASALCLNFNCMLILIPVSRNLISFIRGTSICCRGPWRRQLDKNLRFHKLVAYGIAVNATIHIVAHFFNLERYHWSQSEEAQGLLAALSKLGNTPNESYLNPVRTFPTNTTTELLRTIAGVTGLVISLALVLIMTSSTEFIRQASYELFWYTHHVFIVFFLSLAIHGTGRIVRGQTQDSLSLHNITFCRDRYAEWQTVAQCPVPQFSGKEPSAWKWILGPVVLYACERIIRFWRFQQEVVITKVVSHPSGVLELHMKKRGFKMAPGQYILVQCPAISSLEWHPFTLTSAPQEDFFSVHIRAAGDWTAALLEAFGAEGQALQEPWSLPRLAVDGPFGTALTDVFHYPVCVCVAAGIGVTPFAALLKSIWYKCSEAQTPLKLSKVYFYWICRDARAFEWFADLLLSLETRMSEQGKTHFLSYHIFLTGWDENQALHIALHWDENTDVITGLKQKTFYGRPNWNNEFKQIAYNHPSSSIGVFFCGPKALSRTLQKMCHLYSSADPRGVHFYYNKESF

Variants of: B1
Settings: with lztr1_human LZTR1, Q8N653

Variant | effect of a mutation on the interaction
F133L | with no effect

Variants of: B1
Settings: with lztr1_human LZTR1, Q8N653
Remark: another data set of the same source

Variant | effect of a mutation on the interaction
F133V | with no effect

Variants of: B1
Settings: with lztr1_human LZTR1, Q8N653
Remark: another data set of the same source

Variant | effect of a mutation on the interaction
Y87C | with no effect

Variants of: B1
Settings: with lztr1_human LZTR1, Q8N653
Remark: another data set of the same source

Variant | effect of a mutation on the interaction
F102C | with no effect

Variants of: B2
Settings: with nos3_human NOS3, P29474

Variant | effect of a mutation on the interaction
F133V | with no effect

Variants of: B2
Settings: with nos3_human NOS3, P29474
Remark: another data set of the same source

Variant | effect of a mutation on the interaction
F133L | with no effect

Variants of: B2
Settings: with nos3_human NOS3, P29474
Remark: another data set of the same source

Variant | effect of a mutation on the interaction
F102C | with no effect

Variants of: B2
Settings: with nos3_human NOS3, P29474
Remark: another data set of the same source

Variant | effect of a mutation on the interaction
Y87C | with no effect

Variants of: B3
Settings: with nox3_human NOX3, Q9HBY0

Variant | effect of a mutation on the interaction
Y87C | with no effect

Variants of: B3
Settings: with nox3_human NOX3, Q9HBY0
Remark: another data set of the same source

Variant | effect of a mutation on the interaction
F102C | with no effect

Variants of: B3
Settings: with nox3_human NOX3, Q9HBY0
Remark: another data set of the same source

Variant | effect of a mutation on the interaction
F133L | with no effect

Variants of: B3
Settings: with nox3_human NOX3, Q9HBY0
Remark: another data set of the same source

Variant | effect of a mutation on the interaction
F133V | with no effect
